± gives the standard deviation of the averaged measurements.
Experiments:
MCF7 = test: percentage of EdU-negative (G0-arrested) nuclei per well, 72 h; higher = more G0 arrest; conditions: reference: sequence is the full UniProt precursor, the tested protein was the secreted form or ectodomain
hTERT-HMEC = test: as above; conditions: reference: sequence is the full UniProt precursor, the tested protein was the secreted form or ectodomain
[1] = protein concentration 0.0225 µM
[2] = protein concentration 0.0199575 µM
[3] = protein concentration 0.03125 µM
[4] = protein concentration 0.199575 µM
[5] = protein concentration 0.3125 µM
[6] = protein concentration 0.0194286 µM
[7] = protein concentration 0.194286 µM
[8] = protein concentration 0.03025 µM
[9] = protein concentration 0.3025 µM
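Further: secreted proteins added to cultured cells, EdU pulse at the end, nuclei found by Hoechst imaging, EdU status from nuclear versus surrounding ring intensity ratio, PBS as neutral control.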

Sequence: MGTSPSSSTALASCSRIARRATATMIAGSLLLLGFLSTTTAQPEQKASNLIGTYRHVDRATGQVLTCDKCPAGTYVSEHCTNTSLRVCSSCPVGTFTRHENGIEKCHDCSQPCPWPMIEKLPCAALTDRECTCPPGMFQSNATCAPHTVCPVGWGVRKKGTETEDVRCKQCARGTFSDVPSSVMKCKAYTDCLSQNLVVIKPGTKETDNVCGTLPSFSSSTSPSPGTAIFPRPEHMETHEVPSSTYVPKGMNSTESNSSASVRPKVLSSIQEGTVPDNTSSARGKEDVNKTLPNLQVVNHQQGPHHRHILKLLPSMEATGGEKSSTPIKGPKRGHPRQNLHKHFDINEHLPWMIVLFLLLVLVVIVVCSIRKSSRTLKKGPRQDPSAIVEKAGLKKSMTPTQNREKWIYYCNGHGIDILKLVAAQVGSQWKDIYQFLCNASEREVAAFSNGYTADHERAYAALQHWTIRGPEASLAQLISALRQHRRNDVVEKIRGLMEDTTQLETDKLALPMSPSPLSPSPIPSPNAKLENSALLTVEPSPQDKNKGFFVDESEPLLRCDSTSSGSSALSRNGSFITKEKKDTVLRQVRLDPCDLQPIFDDMLHFLNPEELRVIEEIPQAEDKLDRLFEIIGVKSQEASQTLLDSVYSHLPDLL
- percentage of EdU-negative (MCF7; [1]): 27.8 ± 0.67%
- percentage of EdU-negative (MCF7; protein concentration 0.225 µM): 25.7 ± 4.1%
- percentage of EdU-negative (hTERT-HMEC; [1]): 4.84 ± 0.51%
- percentage of EdU-negative (hTERT-HMEC; protein concentration 0.225 µM): 5.355 ± 0.035%

Sequence: MGTTARAALVLTYLAVASAASEGGFTATGQRQLRPEHFQEVGYAAPPSPPLSRSLPMDHPDSSQHGPPFEGQSQVQPPPSQEATPLQQEKLLPAQLPAEKEVGPPLPQEAVPLQKELPSLQHPNEQKEGTPAPFGDQSHPEPESWNAAQHCQQDRSQGGWGHRLDGFPPGRPSPDNLNQICLPNRQHVVYGPWNLPQSSYSHLTRQGETLNFLEIGYSRCCHCRSHTNRLECAKLVWEEAMSRFCEAEFSVKTRPHWCCTRQGEARFSCFQEEAPQPHYQLRACPSHQPDISSGLELPFPPGVPTLDNIKNICHLRRFRSVPRNLPATDPLQRELLALIQLEREFQRCCRQGNNHTCTWKAWEDTLDKYCDREYAVKTHHHLCCRHPPSPTRDECFARRAPYPNYDRDILTIDIGRVTPNLMGHLCGNQRVLTKHKHIPGLIHNMTARCCDLPFPEQACCAEEEKLTFINDLCGPRRNIWRDPALCCYLSPGDEQVNCFNINYLRNVALVSGDTENAKGQGEQGSTGGTNISSTSEPKEE
- percentage of EdU-negative (MCF7; [2]): 23.4 ± 2%
- percentage of EdU-negative (MCF7; [3]): 25.6 ± 1.1%
- percentage of EdU-negative (MCF7; [4]): 25.7 ± 1.2%
- percentage of EdU-negative (MCF7; [5]): 26 ± 1.7%
- percentage of EdU-negative (hTERT-HMEC; [2]): 5.01 ± 0.46%
- percentage of EdU-negative (hTERT-HMEC; [3]): 4.52 ± 0.66%
- percentage of EdU-negative (hTERT-HMEC; [4]): 5.74 ± 0.78%
- percentage of EdU-negative (hTERT-HMEC; [5]): 5.29 ± 0.63%

Sequence: MGVAARPPALRHWFSHSIPLAIFALLLLYLSVRSLGARSGCGPRAQPCVPGETAPFQVRQESGTLEAPERKQPPCLGPRGMLGRMMRRFHASLKPEGDVGLSPYLAGWRALVEFLTPLGSVFAFATREAFTKVTDLEARVHGPDAEHYWSLVAMAAWERRAGLLEQPGAAPRDPTRSSGSRTLLLLHRALRWSQLCLHRVATGALGGPDAGVQCSDAYRAALGPHHPWLVRQTARLAFLAFPGRRRLLELACPGATEAEARAALVRAAGTLEDVYNRTQSLLAERGLLQLA [A6NH11]
- percentage of EdU-negative (MCF7; [6]): 23.4 ± 0.51%
- percentage of EdU-negative (MCF7; [7]): 25.5 ± 2.7%
- percentage of EdU-negative (hTERT-HMEC; [6]): 5.02 ± 1.8%
- percentage of EdU-negative (hTERT-HMEC; [7]): 5.53 ± 0.54%

Sequence: MGVCGYLFLPWKCLVVVSLRLLFLVPTGVPVRSGDATFPKAMDNVTVRQGESATLRCTIDDRVTRVAWLNRSTILYAGNDKWSIDPRVIILVNTPTQYSIMIQNVDVYDEGPYTCSVQTDNHPKTSRVHLIVQVPPQIMNISSDITVNEGSSVTLLCLAIGRPEPTVTWRHLSVKEGQGFVSEDEYLEISDIKRDQSGEYECSALNDVAAPDVRKVKITVNYPPYISKAKNTGVSVGQKGILSCEASAVPMAEFQWFKEETRLATGLDGMRIENKGRMSTLTFFNVSEKDYGNYTCVATNKLGNTNASITLYGPGAVIDGVNSASRALACLWLSGTLLAHFFIKF
- percentage of EdU-negative (MCF7; [1]): 23.9 ± 0.79%
- percentage of EdU-negative (MCF7; protein concentration 0.225 µM): 23.8 ± 1.2%
- percentage of EdU-negative (hTERT-HMEC; [1]): 4.81 ± 0.74%
- percentage of EdU-negative (hTERT-HMEC; protein concentration 0.225 µM): 5.39 ± 1.6%

Sequence: MGVCGYLFLPWKCLVVVSLRLLFLVPTGVPVRSGDATFPKAMDNVTVRQGESATLRCTIDNRVTRVAWLNRSTILYAGNDKWCLDPRVVLLSNTQTQYSIEIQNVDVYDEGPYTCSVQTDNHPKTSRVHLIVQVSPKIVEISSDISINEGNNISLTCIATGRPEPTVTWRHISPKAVGFVSEDEYLEIQGITREQSGDYECSASNDVAAPVVRRVKVTVNYPPYISEAKGTGVPVGQKGTLQCEASAVPSAEFQWYKDDKRLIEGKKGVKVENRPFLSKLIFFNVSEHDYGNYTCVASNKLGHTNASIMLFGPGAVSEVSNGTSRRAGCVWLLPLLVLHLLLKF [Q9P121]
- percentage of EdU-negative (MCF7; [8]): 24.73 ± 0.092%
- percentage of EdU-negative (MCF7; [9]): 28.9 ± 1.9%
- percentage of EdU-negative (hTERT-HMEC; [8]): 5.01 ± 0.68%
- percentage of EdU-negative (hTERT-HMEC; [9]): 6.84 ± 0.93%
